# Assay results reported in article PMC4432644, “Molecular mechanism for USP7-mediated DNMT1 stabilization by acetylation” (Nature Communications, 2015).
# B1: GST–TUD^USP7 (tandem UBL domains of USP7, residues 560–1,102) (domain or fragment, human, UniProt Q93009 560-1102, looked up)
# chain: EAHLYMQVQIVAEDQFCGHQGNDMYDEEKVKYTVFKVLKNSSLAEFVQSLSQTMGFPQDQIRLWPMQARSNGTKRPAMLDNEADGNKTMIELSDNENPWTIFLETVDPELAASGATLPKFDKDHDVMLFLKMYDPKTRSLNYCGHIYTPISCKIRDLLPVMCDRAGFIQDTSLILYEEVKPNLTERIQDYDVSLDKALDELMDGDIIVFQKDDPENDNSELPTAKEYFRDLYHRVDVIFCDKTIPNDPGFVVTLSNRMNYFQVAKTVAQRLNTDPMLLQFFKSQGYRDGPGNPLRHNYEGTLRDLLQFFKPRQPKKLYYQQLKMKITDFENRRSFKCIWLNSQFREEEITLYPDKHGCVRDLLEECKKAVELGEKASGKLRLLEIVSYKIIGVHQEDELLECLSPATSRTFRIEEIPLDQVDIDKENEMLVTVAHFHKEVFGTFGIPFLLRIHQGEHFREVMKRIQSLLDIQEKEFEKFKFAIVMMGRHQYINEDEYEVNLKDFEPQPGNMSHPRPWLGLDHFNKAPKRSRYTYLEKAIKIHN
# notes: Modified pGEX-6P-1 plasmid; also called GST–USP7 (truncation); wild-type GST–TUD^USP7; source: E. coli BL21(DE3), purified
# B2: USP7 (residues 560–1,102), tag removed (domain or fragment, human, UniProt Q93009 560-1102, looked up)
# chain: EAHLYMQVQIVAEDQFCGHQGNDMYDEEKVKYTVFKVLKNSSLAEFVQSLSQTMGFPQDQIRLWPMQARSNGTKRPAMLDNEADGNKTMIELSDNENPWTIFLETVDPELAASGATLPKFDKDHDVMLFLKMYDPKTRSLNYCGHIYTPISCKIRDLLPVMCDRAGFIQDTSLILYEEVKPNLTERIQDYDVSLDKALDELMDGDIIVFQKDDPENDNSELPTAKEYFRDLYHRVDVIFCDKTIPNDPGFVVTLSNRMNYFQVAKTVAQRLNTDPMLLQFFKSQGYRDGPGNPLRHNYEGTLRDLLQFFKPRQPKKLYYQQLKMKITDFENRRSFKCIWLNSQFREEEITLYPDKHGCVRDLLEECKKAVELGEKASGKLRLLEIVSYKIIGVHQEDELLECLSPATSRTFRIEEIPLDQVDIDKENEMLVTVAHFHKEVFGTFGIPFLLRIHQGEHFREVMKRIQSLLDIQEKEFEKFKFAIVMMGRHQYINEDEYEVNLKDFEPQPGNMSHPRPWLGLDHFNKAPKRSRYTYLEKAIKIHN
# notes: The methods name a modified pGEX-6P-1 plasmid but a Ni-NTA purification with on-column cleavage; also called TUD^USP7; source: E. coli BL21(DE3), purified (Ni-NTA, on-column cleavage, anion exchange, SEC)
# B3: GST–TUD^USP7 E744A (domain or fragment, human, UniProt Q93009 560-1102, looked up)
# chain: EAHLYMQVQIVAEDQFCGHQGNDMYDEEKVKYTVFKVLKNSSLAEFVQSLSQTMGFPQDQIRLWPMQARSNGTKRPAMLDNEADGNKTMIELSDNENPWTIFLETVDPELAASGATLPKFDKDHDVMLFLKMYDPKTRSLNYCGHIYTPISCKIRDLLPVMCDRAGFIQDTSLILYEEVKPNLTARIQDYDVSLDKALDELMDGDIIVFQKDDPENDNSELPTAKEYFRDLYHRVDVIFCDKTIPNDPGFVVTLSNRMNYFQVAKTVAQRLNTDPMLLQFFKSQGYRDGPGNPLRHNYEGTLRDLLQFFKPRQPKKLYYQQLKMKITDFENRRSFKCIWLNSQFREEEITLYPDKHGCVRDLLEECKKAVELGEKASGKLRLLEIVSYKIIGVHQEDELLECLSPATSRTFRIEEIPLDQVDIDKENEMLVTVAHFHKEVFGTFGIPFLLRIHQGEHFREVMKRIQSLLDIQEKEFEKFKFAIVMMGRHQYINEDEYEVNLKDFEPQPGNMSHPRPWLGLDHFNKAPKRSRYTYLEKAIKIHN
# notes: also called E744A^USP7; source: E. coli BL21(DE3), purified
# B4: GST–TUD^USP7 D762A (domain or fragment, human, UniProt Q93009 560-1102, looked up)
# chain: EAHLYMQVQIVAEDQFCGHQGNDMYDEEKVKYTVFKVLKNSSLAEFVQSLSQTMGFPQDQIRLWPMQARSNGTKRPAMLDNEADGNKTMIELSDNENPWTIFLETVDPELAASGATLPKFDKDHDVMLFLKMYDPKTRSLNYCGHIYTPISCKIRDLLPVMCDRAGFIQDTSLILYEEVKPNLTERIQDYDVSLDKALDELMAGDIIVFQKDDPENDNSELPTAKEYFRDLYHRVDVIFCDKTIPNDPGFVVTLSNRMNYFQVAKTVAQRLNTDPMLLQFFKSQGYRDGPGNPLRHNYEGTLRDLLQFFKPRQPKKLYYQQLKMKITDFENRRSFKCIWLNSQFREEEITLYPDKHGCVRDLLEECKKAVELGEKASGKLRLLEIVSYKIIGVHQEDELLECLSPATSRTFRIEEIPLDQVDIDKENEMLVTVAHFHKEVFGTFGIPFLLRIHQGEHFREVMKRIQSLLDIQEKEFEKFKFAIVMMGRHQYINEDEYEVNLKDFEPQPGNMSHPRPWLGLDHFNKAPKRSRYTYLEKAIKIHN
# notes: also called D762A^USP7; source: E. coli BL21(DE3), purified
# Columns and labels:
# Conditions in all cases: both partners purified
# [1] = biological target: T1, DNMT1^2KQ (recombinant, residues 600–1,600) (human, UniProt P26358 600-1600, K1111 to Glutamine | K1113 to Glutamine); test: pull-down; GST–USP7 proteins incubated with DNMT1 proteins 2 h at 4 °C in 25 mM HEPES pH 7.4, 150 mM NaCl, 5% glycerol, 0.05% Triton X-100, 1 mM DTT, then held on glutathione resin; SDS–PAGE, Coomassie
# T1 construct: human DNMT1, residues 600-1,600 (DNMT1 if not specified); source: E. coli Rosetta (DE3), purified
# [2] = biological target: T2, DNMT1^2KR (recombinant, residues 600–1,600) (human, UniProt P26358 600-1600, K1111 to Arginine | K1113 to Arginine); test: as above
# T2 construct: human DNMT1, residues 600-1,600 (DNMT1 if not specified); source: E. coli Rosetta (DE3), purified
# [3] = biological target: T3, DNMT1^4KR (recombinant, residues 600–1,600) (human, UniProt P26358 600-1600, K1111 to Arginine | K1113 to Arginine | K1115 to Arginine | K1117 to Arginine); test: as above
# T3 construct: human DNMT1, residues 600-1,600 (DNMT1 if not specified); source: E. coli Rosetta (DE3), purified
# [4] = biological target: T4, DNMT1 (residues 600–1,600) (human, UniProt P26358 600-1600); test: ITC; 0.05 mM DNMT1 (600–1,600) titrated with 0.5 mM USP7 (560–1,102); iTC200; 18 °C; 10 mM HEPES pH 8.0, 300 mM NaCl
# T4 construct: human DNMT1, residues 600-1,600; Modified pET-28a plasmid; also called WT DNMT1 (residues 600–1,600); source: E. coli Rosetta (DE3), purified (Ni-NTA, on-column cleavage, anion exchange, SEC)
# [5] = biological target: T4, DNMT1 (residues 600–1,600); test: pull-down; GST–USP7 proteins incubated with DNMT1 proteins 2 h at 4 °C in 25 mM HEPES pH 7.4, 150 mM NaCl, 5% glycerol, 0.05% Triton X-100, 1 mM DTT, then held on glutathione resin; SDS–PAGE, Coomassie
# T4 sequence (P26358 600-1600): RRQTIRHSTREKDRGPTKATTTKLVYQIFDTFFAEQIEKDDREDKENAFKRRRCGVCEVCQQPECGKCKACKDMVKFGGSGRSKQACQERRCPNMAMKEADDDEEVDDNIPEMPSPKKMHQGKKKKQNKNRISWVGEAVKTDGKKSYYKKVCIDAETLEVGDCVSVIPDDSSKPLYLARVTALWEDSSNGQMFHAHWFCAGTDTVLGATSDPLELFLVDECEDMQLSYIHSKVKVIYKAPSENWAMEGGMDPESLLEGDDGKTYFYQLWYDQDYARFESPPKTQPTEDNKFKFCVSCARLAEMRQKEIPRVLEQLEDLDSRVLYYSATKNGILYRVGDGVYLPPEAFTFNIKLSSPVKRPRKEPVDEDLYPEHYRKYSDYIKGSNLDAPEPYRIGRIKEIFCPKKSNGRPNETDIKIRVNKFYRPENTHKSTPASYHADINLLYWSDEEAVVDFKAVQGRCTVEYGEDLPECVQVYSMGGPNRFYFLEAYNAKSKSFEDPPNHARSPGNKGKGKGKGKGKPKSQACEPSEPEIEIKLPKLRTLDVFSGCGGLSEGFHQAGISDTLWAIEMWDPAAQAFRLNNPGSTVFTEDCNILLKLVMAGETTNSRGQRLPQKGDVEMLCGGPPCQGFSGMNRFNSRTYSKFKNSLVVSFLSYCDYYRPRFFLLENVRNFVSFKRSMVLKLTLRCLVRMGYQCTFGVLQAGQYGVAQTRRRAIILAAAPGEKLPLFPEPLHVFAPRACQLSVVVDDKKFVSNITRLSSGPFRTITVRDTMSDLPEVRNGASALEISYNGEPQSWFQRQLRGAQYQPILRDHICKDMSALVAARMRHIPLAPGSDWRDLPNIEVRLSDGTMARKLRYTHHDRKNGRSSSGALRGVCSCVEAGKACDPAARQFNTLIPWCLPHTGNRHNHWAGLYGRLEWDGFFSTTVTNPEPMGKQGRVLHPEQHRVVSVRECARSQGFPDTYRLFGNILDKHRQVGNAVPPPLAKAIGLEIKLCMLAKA
# T1 sequence (P26358 other isoform, or with tags, fused parts or gaps with the stated changes): as the sequence (P26358 600-1600) above, with K512Q, K514Q counted along it
# T3 sequence (P26358 other isoform, or with tags, fused parts or gaps with the stated changes): as the sequence (P26358 600-1600) above, with K512R, K514R, K516R, K518R counted along it
# T2 sequence (P26358 other isoform, or with tags, fused parts or gaps with the stated changes): as the sequence (P26358 600-1600) above, with K512R, K514R counted along it
binder,measurement,setting,value
B1,binding result,[1],binds
same,binding result,[2],binds
same,binding result,[3],binds
B2,Kd,[4],600 nM
B3,binding result,[5],binds
B4,binding result,[5],binds
